{"source": "patent US20090226437A1", "about": "(Genentech, published 2009)", "key": {"[1]": {"target": "alphaEbeta7 on alphaEbeta7-transfected 293 cells (human) (UniProt P38570)", "sequence (P38570 19-1179, chain 1 of 2)": "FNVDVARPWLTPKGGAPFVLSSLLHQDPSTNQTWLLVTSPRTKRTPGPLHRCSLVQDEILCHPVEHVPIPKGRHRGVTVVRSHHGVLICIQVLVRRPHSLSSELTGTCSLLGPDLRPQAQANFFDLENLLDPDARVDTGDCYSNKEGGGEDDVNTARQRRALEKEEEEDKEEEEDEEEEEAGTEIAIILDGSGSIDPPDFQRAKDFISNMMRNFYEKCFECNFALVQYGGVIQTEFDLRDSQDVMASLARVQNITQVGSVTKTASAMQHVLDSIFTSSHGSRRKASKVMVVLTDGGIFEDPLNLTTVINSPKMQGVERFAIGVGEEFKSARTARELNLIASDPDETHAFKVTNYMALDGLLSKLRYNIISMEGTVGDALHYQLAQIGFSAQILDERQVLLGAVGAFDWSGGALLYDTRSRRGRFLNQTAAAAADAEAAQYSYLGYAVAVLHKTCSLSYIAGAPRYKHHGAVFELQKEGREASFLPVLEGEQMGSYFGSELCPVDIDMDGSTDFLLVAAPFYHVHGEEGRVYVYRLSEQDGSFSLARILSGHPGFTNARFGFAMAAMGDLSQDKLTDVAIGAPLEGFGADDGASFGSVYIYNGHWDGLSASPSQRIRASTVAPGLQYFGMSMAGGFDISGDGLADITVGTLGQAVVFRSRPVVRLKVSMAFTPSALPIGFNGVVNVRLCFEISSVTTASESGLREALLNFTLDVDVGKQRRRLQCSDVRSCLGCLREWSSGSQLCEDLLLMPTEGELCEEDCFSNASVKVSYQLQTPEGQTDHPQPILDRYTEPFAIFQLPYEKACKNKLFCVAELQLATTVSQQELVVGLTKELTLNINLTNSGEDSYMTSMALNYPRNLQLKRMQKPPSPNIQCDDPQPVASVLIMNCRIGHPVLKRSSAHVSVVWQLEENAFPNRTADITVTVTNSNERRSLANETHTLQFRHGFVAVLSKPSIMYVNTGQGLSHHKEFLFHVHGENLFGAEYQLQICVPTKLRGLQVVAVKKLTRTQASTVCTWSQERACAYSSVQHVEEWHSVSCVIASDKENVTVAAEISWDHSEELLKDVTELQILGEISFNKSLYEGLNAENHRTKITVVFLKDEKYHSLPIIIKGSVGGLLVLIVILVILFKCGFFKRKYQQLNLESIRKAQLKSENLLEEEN", "sequence (P26010 20-798, chain 2 of 2, further chain)": "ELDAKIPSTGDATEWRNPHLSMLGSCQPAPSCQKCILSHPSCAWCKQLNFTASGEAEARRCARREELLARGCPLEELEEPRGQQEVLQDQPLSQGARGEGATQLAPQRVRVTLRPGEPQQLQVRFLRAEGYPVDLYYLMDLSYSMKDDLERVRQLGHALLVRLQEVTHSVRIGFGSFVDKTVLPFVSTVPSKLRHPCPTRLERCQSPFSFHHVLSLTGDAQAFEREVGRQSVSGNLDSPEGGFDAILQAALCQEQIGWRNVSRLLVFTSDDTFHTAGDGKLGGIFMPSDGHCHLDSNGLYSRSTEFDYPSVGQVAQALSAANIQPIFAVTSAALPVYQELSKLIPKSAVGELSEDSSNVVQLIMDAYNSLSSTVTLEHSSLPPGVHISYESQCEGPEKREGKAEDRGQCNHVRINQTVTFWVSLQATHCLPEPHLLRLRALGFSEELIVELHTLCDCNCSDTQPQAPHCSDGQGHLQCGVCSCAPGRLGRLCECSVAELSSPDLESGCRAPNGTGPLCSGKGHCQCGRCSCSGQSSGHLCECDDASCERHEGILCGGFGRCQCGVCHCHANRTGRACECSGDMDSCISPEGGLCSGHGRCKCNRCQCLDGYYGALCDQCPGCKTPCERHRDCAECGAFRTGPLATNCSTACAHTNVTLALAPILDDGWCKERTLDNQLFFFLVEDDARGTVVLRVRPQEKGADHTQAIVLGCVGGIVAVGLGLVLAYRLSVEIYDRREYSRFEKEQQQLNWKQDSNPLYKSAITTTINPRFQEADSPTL", "assay": "cell adhesion inhibition, alphaEbeta7 293 cells on coated huE-Cadherin, experiment 2 of 3"}, "[2]": {"target": "alphaEbeta7 on alphaEbeta7-transfected 293 cells (human) (UniProt P38570)", "assay": "cell adhesion inhibition, alphaEbeta7 293 cells on coated huE-Cadherin, experiment 1 of 3"}, "[3]": {"target": "alphaEbeta7 on alphaEbeta7-transfected 293 cells (human) (UniProt P38570)", "assay": "cell adhesion inhibition, alphaEbeta7 293 cells on coated huE-Cadherin, experiment 3 of 3"}, "[4]": {"target": "T1, Full length human integrin alpha4beta7 (expressed in 293 cells, purified by Fib504 affinity chromatography) (human, UniProt P13612 34-1032; P26010 20-798)", "T1 construct": "mature; also called immobilized alpha4beta7", "T1 sequence (P13612 34-1032, chain 1 of 2)": "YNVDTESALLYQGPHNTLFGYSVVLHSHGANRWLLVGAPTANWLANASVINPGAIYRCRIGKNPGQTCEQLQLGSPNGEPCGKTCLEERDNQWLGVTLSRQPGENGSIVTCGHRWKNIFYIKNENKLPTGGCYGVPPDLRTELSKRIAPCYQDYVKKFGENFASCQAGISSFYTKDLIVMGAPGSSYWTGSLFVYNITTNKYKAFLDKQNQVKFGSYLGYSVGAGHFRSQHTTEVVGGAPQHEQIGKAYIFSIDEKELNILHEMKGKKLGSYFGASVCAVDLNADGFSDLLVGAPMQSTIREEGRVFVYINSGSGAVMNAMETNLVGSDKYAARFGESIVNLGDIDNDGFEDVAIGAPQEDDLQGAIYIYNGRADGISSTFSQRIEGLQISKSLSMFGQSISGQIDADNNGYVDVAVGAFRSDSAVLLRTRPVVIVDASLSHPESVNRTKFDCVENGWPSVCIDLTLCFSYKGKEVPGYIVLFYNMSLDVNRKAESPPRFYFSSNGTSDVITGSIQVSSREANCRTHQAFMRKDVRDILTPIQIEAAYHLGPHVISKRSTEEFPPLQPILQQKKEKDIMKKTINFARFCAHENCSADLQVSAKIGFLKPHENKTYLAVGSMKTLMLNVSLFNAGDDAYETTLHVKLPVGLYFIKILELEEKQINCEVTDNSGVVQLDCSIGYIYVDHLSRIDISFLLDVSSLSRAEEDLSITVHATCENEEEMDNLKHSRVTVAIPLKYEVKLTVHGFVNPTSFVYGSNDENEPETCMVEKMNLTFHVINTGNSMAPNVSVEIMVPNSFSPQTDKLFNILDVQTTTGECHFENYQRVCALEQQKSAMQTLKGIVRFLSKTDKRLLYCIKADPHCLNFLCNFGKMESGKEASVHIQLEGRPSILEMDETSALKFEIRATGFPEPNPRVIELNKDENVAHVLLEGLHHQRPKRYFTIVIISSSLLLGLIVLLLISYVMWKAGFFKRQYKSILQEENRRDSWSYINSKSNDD", "T1 sequence (P26010 20-798, chain 2 of 2)": "as the sequence (P26010 20-798, chain 2 of 2, further chain) above", "assay": "BIAcore (column head 'BIAcore Affinity Assay (nM)'); per paragraph 379 the Fab was immobilised on a CM5 chip and human integrin alpha4beta7 injected. The row shows unchanged L1 … and L2 KYASQSIS in the 'Fib504•K RF framework', i.e. the starting Fib504K-RF graft", "description": "(§1) Affinity determinations were performed by surface plasmon resonance using a BIAcore™-3000 (Biacore, Piscataway, N.J.). Humanized Fib504 Fab variants were immobilized in 10 mM acetate pH 4.5 (ranging from 250 to 1500 response units (RU)) on a CM5 sensor chip and 2-fold dilutions of human integrin alpha4beta7 (1.5 to 770 nM) in TBSM containing 2% n-octylglucoside were injected. Each sample was analyzed with 5-minute association and 5 to 60-minute dissociation times. After each injection, the chip was regenerated using three 1-minute injections of 8 M urea. Binding response was corrected by subtracting the RU from a blank flow cell. A 1:1 Languir model of simultaneous fitting of kₒₙ and koff was used for kinetics analysis.\n(§2) Libraries were generated as before using a soft randomization strategy simultaneously at each of the 6 HVRs for the Fib504K-RL and Fib504K-RF grafts and sorted on immobilized alpha4beta7 for 4 rounds of selection as described above. Enrichment was only observed for the library based on the Fib504K-RF graft. […] Most clones contained the change Y32L; in addition position 31 was frequently changed to D, S, P or N (FIG. 1C). In addition to the starting graft, Fib504K-RF, 3 clones were expressed and purified as Fab protein and further analyzed by Biacore as described above. […]"}, "[5]": {"target": "T1, Full length human integrin alpha4beta7 …", "assay": "phage binding assay (OD): Fab displayed on phage, immobilised alpha4beta7, albumin as control coat"}, "[6]": {"target": "T1, Full length human integrin alpha4beta7 …", "assay": "phage-displayed Fab on immobilized alpha4beta7"}, "[7]": {"target": "T1, Full length human integrin alpha4beta7 …", "assay": "SPR (BIAcore-3000), Fab immobilized, alpha4beta7 injected", "description": "as §1\nLibraries were generated as before using a soft randomization strategy simultaneously at each of the 6 HVRs for the Fib504K-RL and Fib504K-RF grafts and sorted on immobilized alpha4beta7 for 4 rounds of selection as described above. Enrichment was only observed for the library based on the Fib504K-RF graft. […] Most clones contained the change Y32L; in addition position 31 was frequently changed to D, S, P or N (FIG. 1C). In addition to the starting graft, Fib504K-RF, 3 clones were expressed and purified as Fab protein and further analyzed by Biacore as described above. […] The results of the Biacore analysis are shown in Table 3, below, and indicate that selected variation in the HVRs and/or framework regions, disclosed herein, generated antagonist antibodies to alpha4beta7 having improved affinity relative to the starting antibody."}, "[8]": {"target": "T1, Full length human integrin alpha4beta7 …", "assay": "BIAcore (column head 'BIAcore Affinity Assay (nM)'); per paragraph 379 the Fab was immobilised on a CM5 chip and human integrin alpha4beta7 injected", "description": "as §1, §2"}, "[9]": {"target": "T1, Full length human integrin alpha4beta7 …", "assay": "SPR (BIAcore), Fab; reference Fib504 Fab", "description": "as §1, §2"}}, "data": [{"molecule": "HP2/1 (anti-alpha4, control) (antibody)", "values": [{"measurement": "IC90", "setting": "[1]", "value": "> 100", "unit": "nM"}, {"measurement": "IC90", "setting": "[2]", "value": "> 100", "unit": "nM"}, {"measurement": "IC90", "setting": "[3]", "value": "> 100", "unit": "nM"}]}, {"molecule": "Fib504K-RF graft (Fib504K graft in the RF acceptor framework), Fab (Fab, V domains shown, number not given; also called hu504K-RF graft) VH: EVQLVESGGGLVQPGGSLRLSCAASGFFITNNYWGWVRQAPGKGLEWVGYISYSGSTSYNPSLKSRFTISRDTSKNTFYLQMNSLRAEDTAVYYCAMTGSSGYFDFWGQGTLVTVSS VL: DIQMTQSPSSLSASVGDRVTITCRASESVDTYLHWYQQKPGKAPKLLIKYASQSISGVPSRFSGSGSGTDFTLTISSLQPEDFATYYCQQGNSLPNTFGQGTKVEIKR", "values": [{"measurement": "Kd", "setting": "[4]", "value": 132, "unit": "nM"}]}, {"molecule": "Fib504-RF (Fib504 graft in the RF acceptor framework), Fab displayed on phage (Fab, name in Kabat numbering, V domains shown, It is built from the Fib504 graft chains with the RF framework changes; Tested as Fab on phage; also called hu504-RF) VH: EVQLVESGGGLVQPGGSLRLSCAASGFFITNNYWGWVRQAPGKGLEWVGYISYSGSTSYNPSLKSRFTISRDTSKNTFYLQMNSLRAEDTAVYYCAMTGSSGYFDFWGQGTLVTVSS VL: DIQMTQSPSSLSASVGDRVTITCRASESVDTYLHWYQQKPGKAPKLLIYYASQSISGVPSRFSGSGSGTDFTLTISSLQPEDFATYYCQQGNSLPNTFGQGTKVEIKR", "values": [{"measurement": "binding result", "setting": "[5]", "value": "no binding"}]}, {"molecule": "Fib504 Kgraft (HVR graft that also includes VL position 49K), Fab displayed on phage (Fab, V domains shown, Tested as Fab on phage; also called hu504 Kgraft; hu504K graft) VH: EVQLVESGGGLVQPGGSLRLSCAASGFFITNNYWGWVRQAPGKGLEWVGYISYSGSTSYNPSLKSRFTISADTSKNTAYLQMNSLRAEDTAVYYCAMTGSSGYFDFWGQGTLVTVSS VL: DIQMTQSPSSLSASVGDRVTITCRASESVDTYLHWYQQKPGKAPKLLIKYASQSISGVPSRFSGSGSGTDFTLTISSLQPEDFATYYCQQGNSLPNTFGQGTKVEIKR", "values": [{"measurement": "binding result", "setting": "[6]", "value": "no binding"}]}, {"molecule": "Variant hu504.5, Fab (Fab, name in Kabat numbering, V domains shown, Tested as Fab; also called Variant 504.5) VH: EVQLVESGGGLVQPGGSLRLSCAASGFFITNNYWGWVRQAPGKGLEWVGYISYSGSTSYNPSLKSRFTISRDTSKNTFYLQMNSLRAEDTAVYYCAMTGSSGYFDFWGQGTLVTVSS VL: DIQMTQSPSSLSASVGDRVTITCRASESVDSLLHWYQQKPGKAPKLLIKYASQSISGVPSRFSGSGSGTDFTLTISSLQPEDFATYYCQQGNSLPNTFGQGTKVEIKR", "values": [{"measurement": "Kd", "setting": "[7]", "value": 9, "unit": "nM"}]}, {"molecule": "Variant hu504.32, Fab (Fab, V domains shown, T31D and Y32L in the light chain of the hu504 Kgraft; Tested as Fab; also called Variant 504.32; humanized variant 504.32) VH: EVQLVESGGGLVQPGGSLRLSCAASGFFITNNYWGWVRQAPGKGLEWVGYISYSGSTSYNPSLKSRFTISRDTSKNTFYLQMNSLRAEDTAVYYCAMTGSSGYFDFWGQGTLVTVSS VL: DIQMTQSPSSLSASVGDRVTITCRASESVDDLLHWYQQKPGKAPKLLIKYASQSISGVPSRFSGSGSGTDFTLTISSLQPEDFATYYCQQGNSLPNTFGQGTKVEIKR", "values": [{"measurement": "Kd", "setting": "[7]", "value": 3, "unit": "nM"}, {"measurement": "Kd", "setting": "[8]", "value": 3.5, "unit": "nM"}, {"measurement": "fold tighter binding relative to the starting rat antibody", "setting": "[9]", "value": 3, "unit": "fold"}]}, {"molecule": "Variant hu504.16, Fab (Fab, name in Kabat numbering, V domains shown, Clone from the Fib504K-RF library with an HVR-L1 change; Tested as Fab; also called Variant 504.16) VH: EVQLVESGGGLVQPGGSLRLSCAASGFFITNNYWGWVRQAPGKGLEWVGYISYSGSTSYNPSLKSRFTISRDTSKNTFYLQMNSLRAEDTAVYYCAMTGSSGYFDFWGQGTLVTVSS VL: DIQMTQSPSSLSASVGDRVTITCRASESVDTLLHWYQQKPGKAPKLLIKYASQSISGVPSRFSGSGSGTDFTLTISSLQPEDFATYYCQQGNSLPNTFGQGTKVEIKR", "values": [{"measurement": "Kd", "setting": "[7]", "value": 23, "unit": "nM"}, {"measurement": "Kd", "setting": "[8]", "value": 23.4, "unit": "nM"}]}, {"molecule": "Fib504 graft (direct HVR graft of rat Fib504 into the human acceptor framework), Fab displayed on phage (Fab, V domains shown, Tested as monovalent Fab-g3 on phage (VH-CH1 fused to truncated P3); also called hu504 graft; humanized504 graft) VH: EVQLVESGGGLVQPGGSLRLSCAASGFFITNNYWGWVRQAPGKGLEWVGYISYSGSTSYNPSLKSRFTISADTSKNTAYLQMNSLRAEDTAVYYCAMTGSSGYFDFWGQGTLVTVSS VL: DIQMTQSPSSLSASVGDRVTITCRASESVDTYLHWYQQKPGKAPKLLIYYASQSISGVPSRFSGSGSGTDFTLTISSLQPEDFATYYCQQGNSLPNTFGQGTKVEIKR", "values": [{"measurement": "binding result", "setting": "[6]", "value": "no binding"}]}, {"molecule": "chimeric Fib504 Fab (Fab, V domains shown, Rat Fib504 variable domains in a chimeric Fab; the constant domains are not specified) VH: EVQLQESGPGLVKPSQSLSLTCSVTGFFITNNYWGWIRKFPGNKMEWMGYISYSGSTSYNPSLKSRISITRDTSKNQFFLQLNSVTTEDTATYYCAMTGSSGYFDFWGPGTMVTVSS VL: DVVMTQSPATLSVTPGERISLSCRASESVDTYLHWYQQKPNESPRLLIKYASQSISGIPSRFSGSGSGTDFTLSINGVELEDLSIYYCQQGNSLPNTFGAGTKLELKR", "values": [{"measurement": "Kd", "setting": "[7]", "value": 11, "unit": "nM"}]}]}
